Results taken from patent publication US6001823A, “Treatment or prophylaxis of diseases caused by pilus-forming bacteria” (priority 1995, dated 1999).
Entries after “also recorded” stand apart in the source; their conditions may differ.

Assays:
[1] = biological target: T1, PapD-PapG complex (Escherichia coli, UniProt P15319); assay: Reconstitution assay: restoration of PapD-PapG complex from reduced, denatured PapG; assay type: biochemical, E. coli; details: PapD incubated with increasing amounts of peptide
T1 construct: made in house
T1 sequence (P15319 22-239): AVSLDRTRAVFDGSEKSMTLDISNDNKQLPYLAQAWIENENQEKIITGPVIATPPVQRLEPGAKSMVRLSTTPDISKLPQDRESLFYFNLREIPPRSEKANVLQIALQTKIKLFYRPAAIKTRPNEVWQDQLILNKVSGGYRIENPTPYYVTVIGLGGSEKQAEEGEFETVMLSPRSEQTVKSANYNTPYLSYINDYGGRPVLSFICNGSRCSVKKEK
Experimental: B: PapD incubated with the G1'-19'WT, G1'-16'WT, K1'-19'WT, and G2'-21'amide was added to reduced, denatured PapD-PapG and the amount of PapD-PapG complex restored in each sample was quantitated as described in example 2. The % inhibition represents the amount of the PapD-PapG complex restored with peptide-treated PapD compared to the amount of PapD-PapG complex restored with untreated PapD. The graph represent the average of 4 experiments. PapD and PapD-PapG complex were prepared as described in F. Lindberg et al, J. Bacteriol. 171, 6052 (1989) and S. J. Hultgren et al., Proc. Natl. Acad. Sci. U.S.A. 86, 4357 (1989).
FIG. 7: Ability of PapD Arg-8, Lys-112 and Thr-7 mutants to bind PapG and restore the PapD-PapG complex in vitro. 0.4 μg of PapD-PapG complex was reduced and denatured as described in FIG. 2B. The denatured PapD-PapG complex was then diluted with 0-630 ng purified wild type (WT) or mutant PapD. The amount of PapD-PapG restored in the samples was determined as in FIG. 2B and was graphed as a percentage of the greatest amount of PapD-PapG restored. The values graphed represent the average of 3 experiments. Wild type and mutant PapD and the PapD-PapG complex were purified as described in F. Lindberg et al, J. Bacteriol. 171, 6052 (1989) and S. J. Hultgren et al., Proc. Natl. Acad. Sci. U.S.A. 86, 4357 (1989).
As described in Kuehn et al., Proc. Natl. Acad. Sci. U.S.A. 88, 10586 (1991), native PapD is able to bind to reduced, denatured PapG and restore the PapD-PapG complex in vitro. This reconstitution assay was used to determine the ability of the peptides to inhibit PapD activity in vitro.
The PapD-peptide solution was then added to the reduced, denatured PapD-PapG, incubated at 25° C. for 10 min, and applied to an IEF 3-9 gel (Pharmacia). The amount of PapD-PapG restored in each sample was quantitated by densitometry of the silver stained IEF band corresponding to the pI of the DG complex.

[2] = biological target: T2, PapD (Escherichia coli, UniProt P15319); assay: Protection of PapD against tryptic cleavage by peptides; assay type: biochemical, E. coli; set-up: made in house; details: PapD preincubated with 20-fold molar excess of peptide
T2 sequence (P15319 22-239): T1 sequence (P15319 22-239)
Experimental: A Lower: The rate of trypsin cleavage of PapD decreased upon preincubation with the G1'-19'WT, G1'-16'WT or K1'-19'WT peptides, but the G2'-21'amide peptide had no effect. 50 μg of purified PapD was preincubated for 15 min at 25° C. with a 20-fold molar excess of G1'-19'WT, G1'-16'WT, K1'-19'WT or G2'-21'amide peptides (any trypsin cleavage sites in these peptides occur at their amino termini where they were predicted not to interfere with PapD), or an equivalent volume of water. Each sample was then incubated at 37° C. with 3.2 μg of trypsin. Aliquots were removed after 0, 5, 10, 20, 30 and 40 min and boiled in SDS-PAGE sample buffer to stop the digestion. The samples were applied to 15% SDS-PAGE gels and the amount of full-length PapD remaining was determined by densitometry of Coomassie blue stained bands corresponding to full-length PapD which are shown.
400 μg of PapD was partially digested by incubation with either 4,5 μg trypsin or 0.45 μg chymotrypsin on PBS for 20 min. at 37° C. The PapD digests were applied to a C-18 HPLC column (Beckman) and 2 major fragments were eluted with a 0-100% acetonitrile gradient in 0.01% trifluoroacetic acid. The PapD fragments were identified by their molecular weight on SDS-PAGE and amino-terminal sequencing. The N-terminal amino acid sequences of the approximately 14 kDa tryptic and chymotryptic fragments were identified as residues 100-108 and 104-109 of PapD, respectively, corresponding to cleavage after Lys-99 (for trypsin) and Leu-103 (for chymotrypsin). The N-terminal sequences of the 11 and 12 kDa bands in the digests were identical to the N-terminal sequence of PapD.

[3] = biological target: T2, PapD; assay: ELISA: PapD binding to peptides coated on microtiter wells; set-up: made in house; species or system E. coli; details: peptide coated on microtiter wells, ELISA
Experimental: The residues in the peptides were numbered starting with the carboxyl terminal residue as 1, and ending with the amino terminal residue. Peptides were also synthesized which deviated in length (G1'-16'WT, G1'-11'WT, G1'-7'WT) or sequence (G2'-21'amide, G1'-19'SV, G1'-19'NH2) from the wild type PapG carboxyl terminal sequence. Using an enzyme-linked immunosorbent assay (ELISA), we tested the ability of PapD to bind to each peptide coated on wells of microtiter plates:
5 mg/ml stock solutions of peptides in water or 50% acetic acid were diluted to a concentration of 2.5 pmol/50 μl in PBS. 50 μl of the peptide solution was coated overnight onto microtiter wells (Nunc-Immuno Plate Maxisorp) at 4° C. The solutions in the plates were discarded, and the wells were blocked with 200 μl 3% bovine serum albumin (BSA, Sigma) in PBS (120 mM NaCl/2.7 mM KCl/10 mM phosphate buffer salts, pH 7.4) for 2 hours at 25° C. The plates were washed vigorously 3 times with PBS and incubated with 50 μl of the indicated amount of purified PapD (Lindberg et al, 1989). After 3 washes with PBS, the wells were incubated with a 1:500 dilution of anti-PapD rabbit antiserum (Lindberg et al, 1989) in 3% BSA/PBS for 45 min. at 25° C. After 3 washes with PBS, the wells were incubated with a 1:1000 dilution of goat anti-rabbit IgG coupled to alkaline phosphatase (Sigma) in 3% BSA/PBS for 45 min. at 25° C. Following 3 washes with PBS and 3 washes with developing buffer (10 mM diethanolamine pH 9.5, 0,5 mM MgCl2), 50 μl filtered p-nitrophenyl phosphate substrate (Sigma) in developing buffer (10 mg/ml) was added. The absorbance at 405 nm was read after 60 min of incubation in the dark at 25° C.

NH2--KPGELSGSMTMVLSFP--COOH (H-KPGELSGSMTMVLSFP-OH) [G1'-16'WT]
inhibition of restoration of the PapD-PapG complex by PapD [1]: inhibit restoration | rate of tryptic cleavage of PapD [2]: decreased; also recorded: reduced the rate of tryptic cleavage | binding of PapD to immobilized peptide [3]: binds
